Laboratory results as given in article doi:10.1101/660712 (bioRxiv, 2019).

Target: His-tagged CP47 (PSII core antenna protein CP47) (Synechocystis sp. PCC 6803, UniProt P05429 1-507)
Test: AUC

His-tagged CP47 (PSII core antenna protein CP47), sequence (P05429 whole entry): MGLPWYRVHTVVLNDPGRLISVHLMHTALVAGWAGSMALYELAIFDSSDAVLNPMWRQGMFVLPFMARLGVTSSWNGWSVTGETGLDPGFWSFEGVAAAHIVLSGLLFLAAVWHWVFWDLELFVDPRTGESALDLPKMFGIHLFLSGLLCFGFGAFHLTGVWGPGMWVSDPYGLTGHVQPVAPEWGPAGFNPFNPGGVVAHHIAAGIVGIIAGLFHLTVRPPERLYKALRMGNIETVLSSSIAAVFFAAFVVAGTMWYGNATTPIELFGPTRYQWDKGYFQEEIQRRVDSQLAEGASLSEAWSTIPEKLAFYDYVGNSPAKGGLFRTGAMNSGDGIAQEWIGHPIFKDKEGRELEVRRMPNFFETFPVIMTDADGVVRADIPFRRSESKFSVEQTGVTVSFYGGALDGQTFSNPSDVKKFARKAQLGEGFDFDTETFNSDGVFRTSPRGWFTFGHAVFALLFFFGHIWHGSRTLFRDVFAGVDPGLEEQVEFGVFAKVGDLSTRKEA

B1: CP43 (PSII core antenna protein) (natural protein)
chain: not shown
stoichiometry N: ~1
